In patent US8470576B2, “Group of novel enantioselective microbial nitrile hydratases with broad substrate specificity” (B.R.A.I.N. AG, priority 2006, dated 2013):
Changes are numbered by the printed parent chain.

B1: NHase Seq ID No. 2 and 4: nitrile hydratase of Raoultella terrigena strain 77.1, α-subunit SEQ ID NO 2, β-subunit SEQ ID NO 4 (protein)
alpha: MSHKHDHDHTEPPVDIELRVRALESLLQEKGLIDPAALDELIDTYEHKVGPRNGAQVVARAWSDPEYKRRLMENATAAISELGFSGIQGEDMLVVENTPDVHNVTVCTLCSCYPWPVLGLPPVWYKSAPYRSRIVIDPRGVLAEFGLHIPESKEIRVWDSSAELRYLVLPERPAGTDGWSEAQLSELISRDSMIGTGVVTAP
beta: MNGIHDLGGMHGFGPIPTEENEPYFHHEWERRVFPMFASLFVGVHFNVDEFRHSIECMPPADYLQSSYYEHWLHAFETLLLAKGVITVDELWGGAKPTLCKPGTPVLTQDMVSMVVSTGGSARVSHDVAPRFRVGDRVRTKNFNPTTHTRLPRYARDKVGRIEIAHGVFITPDTAAHGLGEHPQHVYSVSFTAQELWGEPRPDNVFIDLWDDYLEEA
modifications: Raoultella terrigena, strain 77.1
B2: NHase Seq ID No. 18 and 20: nitrile hydratase of Klebsiella oxytoca strain 38.1.2, α-subunit SEQ ID NO 18, β-subunit SEQ ID NO 20 (protein)
alpha: B1 alpha with E11Q, S80A, S152N, D177E, S189T
beta: MNGIHDLGGMHGLGPIPTEENEPYFHHEWERRVFPLFASLFVGGHFNVDEFRHAIERMAPTEYLQSSYYEHWLHAFETLLLAKGVITVEELWGGAKPAPCKPGTPVLTQEMVSMVVSTGGSARVSHDVAPRFRVGDWVRTKNFNPTTHTRLPRYARDKVGRIEIAHGVFITPDTAAHGLGEHPQHVYSVSFTAQALWGEPRPDKVFIDLWDDYLEEA
modifications: Klebsiella oxytoca, strain 38.1.2

Legend:
[1] = Determination of the isoelectric point (Phast-System); assay type: physicochemical; conditions: purified enzyme
Method: The IEP of the purified enzyme according to Seq. ID No. 2 and 4 was determined to be 3.5-3.6 using the Phast-System (Amersham Pharmacia).

[2] = Dependence of NHase activity on the temperature; assay type: biochemical; conditions: for optimal temperature: 1 mM PPN
Method: As enzyme samples cell free crude extracts were used either of the heterologously or homologously produced enzyme. The substrate (1 mM 2-phenylpropionitrile (PPN) in 50 mM Tris/HCl pH 7.5)) was equilibrated at the indicated temperatures before the reaction was started by addition of 50 μl of enzyme sample. The activity was determined as described in example 4.
As enzyme samples lyophilized cells or a cell free crude extract were used. The samples were equilibrated for 5 min at the indicated temperatures before the reaction was started by addition of PPN to a final concentration of 1 mM. The activity was determined as described in example 4.
(§1) If not otherwise indicated enzyme samples were prepared as follows: the cells from 1 ml of the culture were washed with 50 mM Tris/HCl pH 7.5 and resuspended in 750 μl of the same buffer. This suspension was incubated at 30° C. in a thermomixer at 1000 rpm. The biotransformation was started by addition of the substrate 2-phenylpropionitrile (PPN) in 50 mM Tris/HCl pH 7.5. The concentration of the substrate was 1 mM, if not otherwise stated. The reaction was stopped after 1 min, 5 min or 10 min as indicated by addition of 1 M HCl. Cells were removed by centrifugation and the supernatant analysed by HPLC for the presence of the corresponding amide. The HPLC analysis was carried out on a system comprising a Surveyor 4 channel Pump, AutoSampler and UVNIS detector at 210 nm from Thermo Finnigan on a Grom-Sil 1200DS-3 cp 3 μm (125×4.6 mm) reverse phase column. As mobile phase, acetonitrile and 0.3% H3PO4 were used in a ratio of 50:50 at a flow of 0.7 ml/min, respectively.
The optimal temperatures for the NHases according to Seq ID No. 2 and 4 (Raoultella terrigena, 77.1) and Seq ID. No. 18 and 20 (Klebsiella oxytoca, 38.1.2) were determined to be at 45° C. (FIG. 23 and FIG. 24). At 55° C. a residual activity of about 20% was found for the enzyme according to Seq ID-No. 18 and 20 whereas at 60° C. no activity could be determined.

[3] = Dependence of NHase activity on the pH; assay type: biochemical
Method: (§2) Cell free crude extracts from Raoultella terrigena (77.1) were incubated for 5 min at 30° C. and the indicated pH-values. The reaction was subsequently started by addition of substrate (1 mM PPN). The activity was determined as described in example 4. Buffers used: McIlvaine buffer: ˜0.1 M citrate/phosphate-buffer; Tris-buffer: 0.1 M Tris/HCl-buffer
as §2, with “E. coli BL21 (DE3) pET22-77.1a/pET26—77.1b” for “Raoultella terrigena (77.1)”
Cell free crude extracts from Klebsiella sp. (77.1) and E. coli BL21 (DE3) pET22—77.1a/pET26—77.1b were incubated for 5 min at 30° C. and the indicated pH-values. The reaction was subsequently started by addition of substrate (1 mM PPN). The activity was determined as described in example 4. Buffers used: McIlvaine buffer: ˜0.1 M citrate/phosphate-buffer
(§3) Lyophilized cells were incubated for 5 min at the indicated pH-values. The reaction was subsequently started by addition of substrate (1 mM PPN). The activity was determined as described in example 4. Buffers used: McIlvaine buffer: ˜0.1 M citrate/phosphate-buffer; Tris-buffer: 0.1 M Tris/HCl-buffer
as §3, with “Cell free crude extracts” for “Lyophilized cells”
as §1
The pH-optimum for the enzyme according to Seq ID No. 2 and 4 (Raoultella terrigena, 77.1) has its pH-optimum at pH 6.75 (FIG. 27).
The NHase according to Seq ID. No. 18 and 20 (Klebsiella oxytoca, 38.1.2) was determined to be between pH 7.0-pH 7.5 (FIG. 28 and FIG. 29). […] At a pH 10, the residual activity of the enzyme is about 65-75%.

Molecule | IEP [1] | optimal temperature [2] [°C] | residual activity at 60° C. [2] | pH-optimum ([3]; 1 mM PPN) | residual activity at pH 4.0 ([3]; homologously produced enzyme) | residual activity at pH 10 [3] | activity at pH<6.0 ([3]; recombinantly produced enzyme) | residual activity at 55° C. ([2]; 55° C.) | activity at pH-value<6 ([3]; crude cell extracts) | residual activity at pH 3.0 ([3]; lyophilized cells)
B1 | 3.5-3.6 | 45 | 60-79% | 6.75 | about 6% | about 27% | no activity |  |  | 
B2 |  | 45 | no activity |  |  | 65-75% |  | about 20% | inactivated | about 10%
